Source: article PMC4482071

Molecular target: Aspergillus nidulans (An) Rpf2 (Aspergillus nidulans)
Experiment: SEC; size exclusion chromatography of the An Rpf2-Rrs1 complex in solution; conditions not given (preparation in ref. 22)

Substance: Aspergillus nidulans (An) Rrs1 (natural protein)
- stoichiometry N: 1
